{"source": "paper PMC7564666", "about": "(2020)", "parents": {"B1": {"name": "GST-LASP1 (full length LIM and SH3 Protein 1, residues 1–261) [human] / argonaute 2 (Ago2), endogenous [human (endogenous in MDA-MB-231 variants 231S and Bone-Un)] (parent complex)", "chain 1": "MNPNCARCGKIVYPTEKVNCLDKFWHKACFHCETCKMTLNMKNYKGYEKKPYCNAHYPKQSFTMVADTPENLRLKQQSELQSQVRYKEEFEKNKGKGFSVVADTPELQRIKKTQDQISNIKYHEEFEKSRMGPSGGEGMEPERRDSQDGSSYRRPLEQQQPHHIPTSAPVYQQPQQQPVAQSYGGYKEPAAPVSIQRSAPGGGGKRYRAVYDYSAADEDEVSFQDGDTIVNVQQIDDGWMYGTVERTGDTGMLPANYVEAI", "chain 2": "not shown"}}, "data": [{"variants_of": "B1", "assay": "GST pull-down, immunoblot; 1 mg of Bone-Un LASP1-KO total lysate; 1.5 nmol of each of the double-mutants; parent: 1", "values": [{"variant": "chain 1 S146A, chain 1 Y171D", "ratio to parent": 1.82}, {"variant": "chain 1 S146A, chain 1 Y171F", "ratio to parent": 1.29}, {"variant": "chain 1 S146D, chain 1 Y171D", "ratio to parent": 0.9}]}, {"variants_of": "B1", "assay": "GST pull-down with purified proteins (direct binding), immunoblot; 100 ng of purified recombinant Ago2; 1.5 nmol of purified LASP1 double mutants; low exposure blot; parent: 1", "values": [{"variant": "chain 1 S146A, chain 1 Y171D", "ratio to parent": 3.98}, {"variant": "chain 1 S146A, chain 1 Y171F", "ratio to parent": 1.6}]}, {"variants_of": "B1", "assay": "GST pull-down with purified proteins (direct binding), immunoblot; 100 ng of purified recombinant Ago2; 1.5 nmol of purified LASP1 double mutants; high exposure blot; parent: 1", "values": [{"variant": "chain 1 S146D, chain 1 Y171D", "ratio to parent": 0.58}, {"variant": "chain 1 S146D, chain 1 Y171F", "ratio to parent": 0.34}]}, {"variants_of": "B1", "assay": "GST pull-down, immunoblot; 1 mg of Bone-Un LASP1 KO total lysate; 1.5 nmol of each LASP1 single-mutant protein; parent: 1", "values": [{"variant": "chain 1 Y171D", "ratio to parent": 5}, {"variant": "chain 1 Y171F", "ratio to parent": 0.27}, {"variant": "chain 1 S146A", "ratio to parent": 4.79}, {"variant": "chain 1 S146D", "ratio to parent": 3.23}]}, {"variants_of": "B1", "assay": "GST pull-down with purified proteins (direct binding), immunoblot; 100 ng of purified recombinant Ago2; 1.5 nmol of each purified single-mutant protein; high exposure blot; parent: 1", "values": [{"variant": "chain 1 Y171D", "ratio to parent": 0.61}, {"variant": "chain 1 Y171F", "ratio to parent": 0.08}, {"variant": "chain 1 S146D", "ratio to parent": 0.39}]}]}
